B1: Chromosomal replication initiator protein DnaA (Escherichia coli (strain K12)), P03004 (parent)
chain: MSLSLWQQCLARLQDELPATEFSMWIRPLQAELSDNTLALYAPNRFVLDWVRDKYLNNINGLLTSFCGADAPQLRFEVGTKPVTQTPQAAVTSNVAAPAQVAQTQPQRAAPSTRSGWDNVPAPAEPTYRSNVNVKHTFDNFVEGKSNQLARAAARQVADNPGGAYNPLFLYGGTGLGKTHLLHAVGNGIMARKPNAKVVYMHSERFVQDMVKALQNNAIEEFKRYYRSVDALLIDDIQFFANKERSQEEFFHTFNALLEGNQQIILTSDRYPKEINGVEDRLKSRFGWGLTVAIEPPELETRVAILMKKADENDIRLPGEVAFFIAKRLRSNVRELEGALNRVIANANFTGRAITIDFVREALRDLLALQEKLVTIDNIQKTVAEYYKIKVADLLSKRRSRSVARPRQMAMALAKELTNHSLPEIGDAFGGRDHTTVLHACRKIEQLREESHDIKEDFSNLIRTLSS
partner: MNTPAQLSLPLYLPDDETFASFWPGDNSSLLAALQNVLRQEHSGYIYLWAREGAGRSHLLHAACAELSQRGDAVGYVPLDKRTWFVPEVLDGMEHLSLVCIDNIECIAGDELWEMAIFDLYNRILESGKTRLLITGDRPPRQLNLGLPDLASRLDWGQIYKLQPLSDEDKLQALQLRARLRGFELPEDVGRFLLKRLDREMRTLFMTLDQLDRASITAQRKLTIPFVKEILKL

Variants of: B1
Settings: with hda_ecoli hda

Effect of a mutation on the interaction, decreasing interaction:
MSLSLWQQCLARLQDELPATEFSMWIRPLQAELSDNTLALYAPNRFVLDWVRDKYLNNINGLLTSFCGADAPQLRFEVGTKPVTQTPQAAVTSNVAAPAQVAQTQPQRAAPSTRSGWDNVPAPAEPTYRSNVNVKHTFDNFVEGKSNQLARAAARQVADNPGGAYNPLFLYGGTGLGKTHLLHAVGNGIMARKPNAKVVYMHSERFVQDMVKALQNNAIEEFKRYYRSVDALLIDDIQFFANKERSQEEFFHTFNALLEGNQQIILTSDRYPKEINGVEDRLKSRFGWGLTVAIEPPELETRVAILMKKADENDIRLPGEVAFFIAKRLRSNVRELEGALNRVIANANFTGRAITIDFVREALRDLLALQEKLVTIDNIQKTVAEYYKIKVADLLSKRRSRSVARPRQMAMALAKELTNHSLAEIGDAFGGRDHTTVLHACRKIEQLREESHDIKEDFSNLIRTLSS [P423A]
MSLSLWQQCLARLQDELPATEFSMWIRPLQAELSDNTLALYAPNRFVLDWVRDKYLNNINGLLTSFCGADAPQLRFEVGTKPVTQTPQAAVTSNVAAPAQVAQTQPQRAAPSTRSGWDNVPAPAEPTYRSNVNVKHTFDNFVEGKSNQLARAAARQVADNPGGAYNPLFLYGGTGLGKTHLLHAVGNGIMARKPNAKVVYMHSERFVQDMVKALQNNAIEEFKRYYRSVDALLIDDIQFFANKERSQEEFFHTFNALLEGNQQIILTSDRYPKEINGVEDRLKSRFGWGLTVAIEPPELETRVAILMKKADENDIRLPGEVAFFIAKRLRSNVRELEGALNRVIANANFTGRAITIDFVREALRDLLALQEKLVTIDNIQKTVAEYYKIKVADLLSKRRSRSVARPRQMAMALAKELTNHSGPEIGDAFGGRDHTTVLHACRKIEQLREESHDIKEDFSNLIRTLSS [L422G]
MSLSLWQQCLARLQDELPATEFSMWIRPLQAELSDNTLALYAPNRFVLDWVRDKYLNNINGLLTSFCGADAPQLRFEVGTKPVTQTPQAAVTSNVAAPAQVAQTQPQRAAPSTRSGWDNVPAPAEPTYRSNVNVKHTFDNFVEGKSNQLARAAARQVADNPGGAYNPLFLYGGTGLGKTHLLHAVGNGIMARKPNAKVVYMHSERFVQDMVKALQNNAIEEFKRYYRSVDALLIDDIQFFANKERSQEEFFHTFNALLEGNQQIILTSDRYPKEINGVEDRLKSRFGWGLTVAIEPPELETRVAILMKKADENDIRLPGEVAFFIAKRLRSNVRELEGALNRVIANANFTGRAITIDFVREALRDLLALQEKLVTIDNIQKTVAEYYKIKVADLLSKRRSRSVARPRQMAMALAKELTNHSAPEIGDAFGGRDHTTVLHACRKIEQLREESHDIKEDFSNLIRTLSS [L422A]
